From paper PMC7344962 (2020) come the findings set out here.

For orientation: koff means a measure of how fast the partners let go of each other.

The target in experiment [1] is T1, major surface antigen 1 (SAG1) of Toxoplasma gondii (Toxoplasma gondii, UniProt P13664 48-336).
T1 chain: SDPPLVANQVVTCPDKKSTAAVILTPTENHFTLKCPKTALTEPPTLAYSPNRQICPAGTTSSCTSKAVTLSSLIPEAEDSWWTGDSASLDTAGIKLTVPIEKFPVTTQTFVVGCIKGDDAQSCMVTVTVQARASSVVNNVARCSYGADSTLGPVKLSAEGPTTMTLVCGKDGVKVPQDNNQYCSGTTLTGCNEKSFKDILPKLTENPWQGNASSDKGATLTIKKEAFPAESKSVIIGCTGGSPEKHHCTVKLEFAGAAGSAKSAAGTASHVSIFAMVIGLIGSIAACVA
Kind of experiment: SPR; two-state fit (KDapp).

For experiment [2], the target named is T1, major surface antigen 1 (SAG1) of …. Kind of experiment: SPR; two-state fit (kd1).
The target is the same in experiment [3]. Kind of experiment: SPR; Langmuir 1:1 fit.
Experiment [4] shares this target. Kind of experiment: SPR. On the technique in general: In SPR one partner is held on a chip, and binding of the other changes the refractive index at the surface.
Experiment [5] shares this target. Kind of experiment: SPR.

B1: scFv S1A0 (scFv, V domains shown)
VH: QVQLQQSGAELVRPGVSVKISCKGSGYTFTDYGMHWVKQSHAKSLEWIGIISTYSGDASYNQKFKGKATMTVDKSSSTAYMELARLTSEDSAIYYCARSSTWYYFDYWGQGTTLTVSS
VL: DIQVTQTTSSLSASLGDRVTISCRASQDISNYLNWYQQKPDGTVKLLIYYTSRLHSGVPSRFSGSGSGTDYSLTISNLEQEDIATYFCQQGNTLPYTFGGGTKLEIK
For the molecule B1, the Kd in experiment [1] was 181 nM. For the same molecule, the dissociation rate constant (koff) in experiment [2] worked out at 0.0137 s⁻¹.

B2: scFv S1A4 (scFv, V domains shown)
VH: QVQLQQSGAELVRPGVSVKISCKGSGYTFTDYGMHWVKQSHAKSLEWIGIISTYSGDASYNQKFKGKATMTVDKSSSTAYMELARLTSEDSAIYYCARSSTWYYFDYWGQGTTLTVSS
VL: DIQMTQTPSSLSASLGDRVTISCRASQDISNYLNWYQQKPDGTVKLLIYYTSRLHSGVPSRFSGSGSGTDYSLTISNLEPEDIATYYCQQGNTLPYTFGGGTKLEIK
For the molecule B2, the Kd in experiment [1] stood at 117 nM; in experiment [3] it was 236 nM; in experiment [4], 236 nM. Further, the koff in experiment [2] was 0.0142 s⁻¹.

B3: scFv S1B4 (scFv, V domains shown)
VH: QVQLQQSGAELVRPGTSVKISCKASGYTFTDYGMHWVKQSHAKSLEWIGIISTYSGDASYNQKFKGKATMTVDKSSSTAYMQLSSLTSEDSAVYYCARSSTWYYFDYWGQGTLVTVSA
VL: DIQMTQTPSSLSASLGDRVTISCRASQDISNYLNWYQQKPDGTVKLLIYYTSRLHSGVPSRFSGSGSGTDYSLTISNLEPEDIATYYCQQGNTLPYTFGGGTKLEIK
Regarding B3, the Kd is 329 nM in experiment [1], 323 nM in experiment [3] and 323 nM in experiment [4]. This molecule had a koff in experiment [2] of 0.0255 s⁻¹.

B4: scFv S1D4 (scFv, V domains shown)
VH: QVQLQQSGAELVRPGTSVKISCKASGYTFTDYGMHWVKQRPGHGLEWIGIISTYSGDASYNQKFKGKATMTVDKSSSTAYMQLSSLTSEDSAVYYCARSSTWYYFDYWGQGTLVTVSA
VL: DIQMTQTPSSLSASLGDRVTISCRASQDISNYLNWYQQKPDGTVKLLIYYTSRLHSGVPSRFSGSGSGTDYSLTISNLEPEDIATYYCQQGNTLPYTFGGGTKLEIK
For B4, the Kd in experiment [1] worked out at 360 nM; in experiment [5], 400 nM; in experiment [3], 400 nM. The koff in experiment [2] worked out at 0.0183 s⁻¹.

B5: scFv S1C4 (scFv, V domains shown)
VH: QVQLQQSGAELVRPGVSVKISCKGSGYTFTDYGMHWVKQRPGHGLEWIGIISTYSGDASYNQKFKGKATMTVDKSSSTAYMELARLTSEDSAIYYCARSSTWYYFDYWGQGTTLTVSS
VL: DIQMTQTPSSLSASLGDRVTISCRASQDISNYLNWYQQKPDGTVKLLIYYTSRLHSGVPSRFSGSGSGTDYSLTISNLEPEDIATYYCQQGNTLPYTFGGGTKLEIK
Consider B5, for which the Kd in experiment [1] came to 59 nM; in experiment [3] it was 61 nM; in experiment [4], 61 nM. In addition, the koff in experiment [2] turned out to be 0.0158 s⁻¹.
